Entries after “also recorded” stand apart in the source; their conditions may differ. Structures can show the parent of a compound that is named as a salt. Where two headings read alike, the source gives them in different places.
B1: NB72: β2AR-specific nanobody, SEQ ID NO:24; the tested NB72 is assumed to be this one (protein, listed as Lama glama)
VHH: QVQLQESGGGLVQPGGSLRLSCAASGFTFSGYAMNWVRQAPGKGPEWVSAINSGGGSTSYADSVKGRFTISRDNAKNTVYLQMNSLKPEDTAVYYCHARDIYSDFLGQYEYDYWGQGTQVTVSS
B2: NB65: β2AR-specific nanobody, SEQ ID NO:5 (protein, listed as Lama glama)
VHH: QVQLQESGGGLVQAGGSLRLSCAASGSIFSINTMGWYRQAPGKQRELVAAIHSGGSTNYADSVRGRFTISRDNAKNTVYLQMNSLKPEDTAVYYCNVKDYGAVLYEYDYWGQGTQVTVSS
B3: NB67: β2AR-specific nanobody, SEQ ID NO:20 (protein, listed as Lama glama)
VHH: QVQLQESGGGLVQAGGSLRLSCAASGTISSFIAMGWYRQSPGKQRELVAGITSGGETNYEDSVKGRFTISRDNAKNTLYLQMNTLKPEDTAVYYCNAQVFADIFNLINYWGQGTQVTVSS
B4: NB69: β2AR-specific nanobody, SEQ ID NO:26 (protein, listed as Lama glama)
VHH: QVQLQESGGGLVQPGGSLRLSCAASGSIFSINAMGWYRQAPGKQRDLVASITSGGSTNYADSVKGRFTISRDNAKNTVYLQMNSLKPEDTAVYYCNVQGTGPSSWLFNEYDYWGQGTQVTVSS
B5: NB71: β2AR-specific nanobody, SEQ ID NO:25 (protein, listed as Lama glama)
VHH: QVQLQESGGGLVQPGGSLRLSCAASGFAFSSYELRWYRQAPGKQHELVAGITTGGNTYYADSVKGRFTISRDNAKNTVYLQMSNLRPEDTAVYACNANWDLLSDYWGQGTQVTVSS
B6: NB84: β2AR-specific nanobody, SEQ ID NO:29; the tested NB84 is assumed to be this one (protein, listed as Lama glama)
VHH: QVQLQESGGGLVQAGGSLRLSCAASGSIFSINAMGWYRQAPGKQRELVAAITSGGSTTYADSVKGRFTVSRDNAKNTVYLQMIRLKPEDTAVYYCHVRDIYSDFLGQYEYDYWGQGTQVTVSS

Columns and labels:
[1] = target: T1, β2AR (Homo sapiens, UniProt P07550); type: binding
[2] = tested on: β2AR; experiment: Size exclusion chromatography of nanobody with purified agonist- or inverse agonist-bound β2AR; type: binding, human; conditions: 20 μM β2AR bound to agonist or inverse agonist, 40 μM nanobody
Description: The mixture was then analyzed by Size Exclusion Chromatography (SEC), which separates protein on the basis of size. Seven of the nanobodies bound to purified β2AR and migrated as a complex on SEC only in the presence of agonist and not an inverse agonist (an example is shown in FIG. 1, Panel a, FIGS. 3A, 3B, and FIG. 4).
Agonist selective nanobodies were identified by size exclusion chromatography following incubation of 20 μM agonist or inverse agonist-(carazolol-) bound β2AR-365N for one hour at RT in the absence or presence of 40 μM nanobody.

[3] = target: T1, β2AR; conditions: agonist competition binding, Sf9 membranes
Description: The IC50 values used for calculations of Ki values were obtained from means of pIC50 values determined by nonlinear regression analysis using Prism (GraphPad Software, San Diego, Calif.) and the s.e. interval from pIC50±s.e.

[4] = target: T1, β2AR; experiment: Monobromobimane fluorescence of purified mBBr-labeled β2AR; type: biochemical; set-up: made in house; conditions: 1 μM nanobody, β2AR bound to full agonist isoproterenol
Excerpt: To investigate the effect of nanobodies on movement of the cytoplasmic domain of TM6 we labeled purified β2AR at C265 with monobromobimane (mBB-β2AR). […] In mBB-β2AR, the addition of agonist together with G protein results in larger fluorescent changes than either agonist or G protein alone. This is compatible with the cooperative interactions observed in agonist competition binding assays (Yao et al. 2009).
Purified β2AR was reacted with 1:1 equivalent of monobromobimane (mBBr, Invitrogen) in 100 mM NaCl, 20 mM HEPES, pH 7.5, 0.1% dodecyl maltoside and incubated overnight on ice in the dark. The fluorophore-labeled receptor was purified right before use by gel filtration on a desalting column equilibrated with the same buffer. […] All experiments were performed at 25° C. […] To determine the effect of nanobodies and ligands, three individual labeled protein samples were incubated with 1 μM nanobody or 10 μM Isoproterenol or both. Emission spectra of the samples were taken after 1 hour incubation.

[5] = ratio of IC50 with irrelevant Nb to IC50 with 500 nM Nb80, 3H-DHA radioligand

Row | Molecule | Potency shift [1, 5] | complex formation with β2AR on SEC [2] | enhancement of the affinity of β2AR for the agonist isoproterenol in the presence of nanobody [3] | further results
1 | CC(NCCc1ccc(O)cc1)C(O)c1ccc(O)cc1 (centres unmarked) [ritodrine, ritodrine hydrochloride] | 2.7 | – | – | –
2 | metaproterenol hemisulfate salt | – | – | – | Potency shift [1]: 2.9
3 | CC(Cc1ccc(O)cc1)NCC(O)c1cc(O)cc(O)c1 (centres unmarked) [fenoterol, fenoterol hydrobromide] | 3.7 | – | – | –
4 | CC(CCc1ccc(O)cc1)NCCc1ccc(O)c(O)c1 (centres unmarked) [dobutamine, dobutamine hydrochloride] | 2.3 | – | – | –
5 | CCC(NC(C)C)C(O)c1ccc(O)c2[nH]c(=O)ccc12 (centres unmarked) [procaterol, procaterol hydrochloride] | 2.3 | – | – | –
6 | B1 | – | elutes at an earlier volume | two- to thirty-fold | nanobody-induced change of mBBr fluorescence ([4]; listed as 72): Comparable results; also recorded: stabilize a more active state of the β2AR
7 | B2 | – | elutes at an earlier volume | two- to thirty-fold | nanobody-induced change of mBBr fluorescence ([4]; listed as 65): Comparable results; also recorded: stabilize a more active state of the β2AR
8 | B3 | – | elutes at an earlier volume | two- to thirty-fold | nanobody-induced change of mBBr fluorescence ([4]; listed as 67): Comparable results; also recorded: stabilize a more active state of the β2AR
9 | B4 | – | elutes at an earlier volume | two- to thirty-fold | nanobody-induced change of mBBr fluorescence ([4]; listed as 69): Comparable results; also recorded: stabilize a more active state of the β2AR
10 | B5 | – | elutes at an earlier volume | two- to thirty-fold | nanobody-induced change of mBBr fluorescence ([4]; listed as 71): Comparable results; also recorded: stabilize a more active state of the β2AR
11 | B6 | – | elutes at an earlier volume | two- to thirty-fold | nanobody-induced change of mBBr fluorescence ([4]; listed as 84): Comparable results; also recorded: stabilize a more active state of the β2AR

From patent publication US11162953B2, “Protein binding domains stabilizing functional conformational states of GPCRS and uses thereof” (priority 2010, dated 2021)
